Here are results for two molecules from publication PMC5159557 (Nucleic Acids Research, 2016).

What all share (assay): native MS
Test [1] concerns the target Cas7 subunit of Escherichia coli type I-E Cascade (Escherichia coli).
The target of test [2] is T1, Cas5 subunit of Escherichia coli type I-E Cascade (Escherichia coli, UniProt Q46898 1-224).
T1 sequence: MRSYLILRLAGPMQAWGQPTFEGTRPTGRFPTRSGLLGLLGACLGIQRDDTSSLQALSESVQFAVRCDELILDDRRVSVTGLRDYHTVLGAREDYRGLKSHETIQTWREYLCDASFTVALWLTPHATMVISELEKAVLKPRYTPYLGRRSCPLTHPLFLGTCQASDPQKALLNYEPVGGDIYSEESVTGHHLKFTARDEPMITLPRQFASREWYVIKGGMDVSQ

The target in test [3] is T2, Cas6e subunit of Escherichia coli type I-E Cascade (Escherichia coli, UniProt Q46897 1-199).
T2 sequence: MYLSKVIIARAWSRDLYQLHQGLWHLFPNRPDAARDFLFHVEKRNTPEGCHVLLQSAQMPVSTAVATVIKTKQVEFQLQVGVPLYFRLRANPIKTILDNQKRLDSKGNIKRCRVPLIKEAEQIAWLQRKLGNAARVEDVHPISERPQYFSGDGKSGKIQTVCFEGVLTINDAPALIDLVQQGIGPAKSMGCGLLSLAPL

Broadly, the stoichiometry N is a count of units in the complex or per binding partner. Take “Cas7 subunit of Escherichia coli type I-E Cascade (natural protein)”: the stoichiometry N in test [1] came to 6.

B1: Cse2 subunit of Escherichia coli type I-E Cascade, N-terminally fused to Strep-Tag II (natural protein)
chain: MADEIDAMALYRAWQQLDNGSCAQIRRVSEPDELRDIPAFYRLVQPFGWENPRHQQALLRMVFCLSAGKNVIRHQDKKSEQTTGISLGRALANSGRINERRIFQLIRADRTADMVQLRRLLTHAEPVLDWPLMARMLTWWGKRERQQLLEDFVLTTNKNA
With B1, the binding result in test [2] and in test [3] was “binds” throughout.
